Data on 3 molecules can be found in PMC8877046, “Interferon-β Activity Is Affected by S100B Protein” (International Journal of Molecular Sciences, 2013).

Some results are limits rather than exact numbers.

As usually defined, the stoichiometry N is the number of molecules, sites or subunits per partner or assembly.

For data set [1], the target named is IFNAR2 ECD (Homo sapiens) (UniProt P48551). As to conditions: cited from earlier work.
Data set [2] concerns the target T1, Human interferon beta-1a (IFN-β, Rebif) (human), P01574.
T1 chain: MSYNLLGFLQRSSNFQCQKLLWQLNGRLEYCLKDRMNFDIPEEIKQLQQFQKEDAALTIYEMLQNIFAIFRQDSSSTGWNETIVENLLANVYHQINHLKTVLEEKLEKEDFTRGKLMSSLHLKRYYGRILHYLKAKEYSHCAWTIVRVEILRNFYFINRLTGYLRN
Put plainly: other fluorescence titration; tryptophan fluorescence of 0.5 µM IFN-β (excitation 295 nm) titrated by S100B; 25 °C; 10 mM HEPES-NaOH, 150 mM NaCl, 1 mM CaCl2, pH 7.4; one-site binding model; apparent. As to conditions: remark: other sources report otherwise.

Data set [3] concerns the molecule itself. Put plainly: cross-linking; 5 µM IFN-β with 10 µM Ca2+-depleted S100B (1:2), and 10 µM apo-S100B alone; 40 mM EDAC, 10 mM sulfo-NHS, 25 °C, 1.5 h; 10 mM HEPES, 150 mM NaCl, pH 7.4, without CaCl2 and without chelator; authors say the samples could be contaminated by Ca2+.
Data set [4] deals with the molecule itself. Put plainly: cross-linking; 5 µM IFN-β alone; 40 mM EDAC, 10 mM sulfo-NHS, 25 °C, 1.5 h; 10 mM HEPES, 150 mM NaCl, pH 7.4; SDS-PAGE, silver staining; whether CaCl2 was present is not told for this lane.
Data set [5] has as its target T2, Human S100B protein (human), P04271.
T2 chain: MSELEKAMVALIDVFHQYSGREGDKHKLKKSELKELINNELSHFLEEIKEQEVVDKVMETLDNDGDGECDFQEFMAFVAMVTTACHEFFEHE
Put plainly: SPR; S100B immobilised by amine coupling on ProteOn GLH chip (up to 9000 RU); analyte 10-80 nM IFN-β; 25 °C; 10 mM HEPES, 150 mM NaCl, 0.05% TWEEN 20, 1 mM CaCl2, pH 7.4; heterogeneous ligand model (two populations of ligand). As to conditions: remark: other sources report otherwise. (In general: In SPR one partner is held on a chip, and binding of the other changes the refractive index at the surface.)

IFNAR2 ECD (Homo sapiens), sequence (P48551 27-243): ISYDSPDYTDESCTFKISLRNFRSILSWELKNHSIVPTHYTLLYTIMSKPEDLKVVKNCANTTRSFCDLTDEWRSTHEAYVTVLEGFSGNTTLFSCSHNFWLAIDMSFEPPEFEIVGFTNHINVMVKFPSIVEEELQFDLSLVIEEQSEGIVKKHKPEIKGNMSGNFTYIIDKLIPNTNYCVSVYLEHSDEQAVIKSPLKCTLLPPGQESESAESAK

On to IFN-β (from UniProt P01574), for which, in data set [1], the Kd is 0.1 nM.

B1: Human S100B protein (natural protein)
chain: MSELEKAMVALIDVFHQYSGREGDKHKLKKSELKELINNELSHFLEEIKEQEVVDKVMETLDNDGDGECDFQEFMAFVAMVTTACHEFFEHE
notes: human S100B, UniProt P04271; crystal structure of Ca2+-loaded human S100B dimer PDB 5D7F chains A and B; The authors take the S100B that was amine-coupled to the SPR chip to be partly converted to the monomer; also called apo-S100B; Ca^2+-loaded S100B
On to B1, for which, in data set [2], the Kd is 21 nM and the stoichiometry N (S100B to IFN-β molar ratio) was found to be 1. Besides, in data set [3], the “stoichiometry N” value amounted to 2.

B2: Human interferon beta-1a (IFN-β, Rebif) (ligand, UniProt P01574 22-187, looked up)
chain: MSYNLLGFLQRSSNFQCQKLLWQLNGRLEYCLKDRMNFDIPEEIKQLQQFQKEDAALTIYEMLQNIFAIFRQDSSSTGWNETIVENLLANVYHQINHLKTVLEEKLEKEDFTRGKLMSSLHLKRYYGRILHYLKAKEYSHCAWTIVRVEILRNFYFINRLTGYLRN
notes: human interferon-β (interferon beta-1a), gene IFNB1, UniProt P01574; Drug product Rebif; also called Interferon-β; source: produced in CHO-K1 cells; bought: Merck (Rebif)
Take B2: the binding result in data set [4] is “binds”. In data set [5], this molecule displayed a Kd1 (ligand population 1 of the heterogeneous ligand model) of 47 pM; a Kd2 (ligand population 2 of the heterogeneous ligand model) of 87 nM; a kd1 (dissociation rate constant, ligand population 1 of the heterogeneous ligand model) of 0.000149 s⁻¹; a kd2 (dissociation rate constant, ligand population 2 of the heterogeneous ligand model) of 0.013 s⁻¹. Further, in data set [5], the t1/2 of dissociation (fast process) was 1.67 min and the t1/2 of dissociation (slow process) is > 16.7 min.
